In patent US20070015194A1 (RAMOT AT TEL AVIV UNIVERSITY, published 2007):

Target: T1, CC2D1A protein (coiled-coil and C2 domain containing 1A), wild type, human, GenBank Accession No. NP-060191 (human, UniProt Q6P1N0 1-951)
T1 construct: Endogenous protein in lysates of lymphoblast or lymphoblastoid cells from unaffected individuals; It is the long isoform of 951 amino acids, seen as a band of about 104 kDa; also called FLJ20241; wild type protein
T1 sequence: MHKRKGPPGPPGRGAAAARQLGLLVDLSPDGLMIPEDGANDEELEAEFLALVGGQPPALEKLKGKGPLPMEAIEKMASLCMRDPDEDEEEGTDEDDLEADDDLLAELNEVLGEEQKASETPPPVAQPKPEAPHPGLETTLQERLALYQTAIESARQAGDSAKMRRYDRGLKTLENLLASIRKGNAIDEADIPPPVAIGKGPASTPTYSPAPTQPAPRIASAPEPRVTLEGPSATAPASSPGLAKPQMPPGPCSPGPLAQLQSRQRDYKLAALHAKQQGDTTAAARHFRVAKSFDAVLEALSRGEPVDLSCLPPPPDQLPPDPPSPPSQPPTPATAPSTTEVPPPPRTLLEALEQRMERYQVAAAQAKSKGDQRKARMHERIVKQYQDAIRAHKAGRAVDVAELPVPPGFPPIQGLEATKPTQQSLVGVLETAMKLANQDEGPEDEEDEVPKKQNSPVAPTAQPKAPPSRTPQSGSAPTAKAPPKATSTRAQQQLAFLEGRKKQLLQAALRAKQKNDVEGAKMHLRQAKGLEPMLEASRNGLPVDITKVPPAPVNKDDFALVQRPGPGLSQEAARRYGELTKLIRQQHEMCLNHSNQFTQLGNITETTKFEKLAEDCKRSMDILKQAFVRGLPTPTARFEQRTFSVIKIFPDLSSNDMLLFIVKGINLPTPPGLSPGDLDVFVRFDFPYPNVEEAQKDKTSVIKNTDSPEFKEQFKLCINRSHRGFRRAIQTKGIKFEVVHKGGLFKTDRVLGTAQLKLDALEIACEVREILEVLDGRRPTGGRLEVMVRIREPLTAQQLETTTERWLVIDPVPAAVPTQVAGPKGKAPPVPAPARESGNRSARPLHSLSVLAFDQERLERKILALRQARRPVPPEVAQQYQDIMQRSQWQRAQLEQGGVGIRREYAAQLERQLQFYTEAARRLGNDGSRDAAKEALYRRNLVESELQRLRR
Test: co-immunoprecipitation of endogenous proteins from control lymphoblastoid cell extracts with anti-CC2D1A antibody, Western blot with anti-p50 (data not shown)
Description: Western blot—Lymphoblast cell proteins were subjected to Western blot analysis using the CC2D1A antibody. Briefly, cells were washed twice with PBS and lysed at 4° C. with lysis buffer (0.6% NP40 and protease inhibitors). After 15 minutes of incubation, cell lysates were centrifuged for 5 minutes at 14,000 rpm and supernatants were collected. Protein concentrations were determined using the BCA Protein Assay Reagent Kit (PIERCE). Whole-cell proteins (approximately 20 μg) were subjected to 7.5% SDS-PAGE and transferred to nitrocellulose membranes. The membranes were blocked for 30 minutes at room temperature with 5% skim milk in Tris-buffer (10 mM Tris, 150 mM NaCl, and 0.1% Tween-20) and subsequently incubated with anti-CC2D1A rabbit polyclonal antibody (BL695, Bethyl laboratories) diluted 1:20000, rabbit polyclonal anti-emerin (sc-15378, Santa Cruz Biotechnology) diluted 1:5000, mouse monoclonal antibody anti-NF-κB p50 (sc-8414, Santa Cruz Biotechnology) diluted 1:1000 or mouse monoclonal antibody p65 (sc-8008, Santa Cruz Biotechnology) diluted 1:5000. After washing and subsequent incubation for 1 hour with horseradish peroxidase coupled to anti-rabbit IgG or mouse IgG respectively (Jackson ImmunoResearch Laboratories, West Grove, Pa.), immunoreactive proteins were visualized by an ECL (enhanced chemiluminescence super signal) Detection Kit (PIERCE). […]

binding result: no binding
B1: p50 subunit of NF-κB (other, human, UniProt P19838 1-433, looked up)
chain: MAEDDPYLGRPEQMFHLDPSLTHTIFNPEVFQPQMALPTDGPYLQILEQPKQRGFRFRYVCEGPSHGGLPGASSEKNKKSYPQVKICNYVGPAKVIVQLVTNGKNIHLHAHSLVGKHCEDGICTVTAGPKDMVVGFANLGILHVTKKKVFETLEARMTEACIRGYNPGLLVHPDLAYLQAEGGGDRQLGDREKELIRQAALQQTKEMDLSVVRLMFTAFLPDSTGSFTRRLEPVVSDAIYDSKAPNASNLKIVRMDRTAGCVTGGEEIYLLCDKVQKDDIQIRFYEEEENGGVWEGFGDFSPTDVHRQFAIVFKTPKYKDINITKPASVFVQLRRKSDLETSEPKPFLYYPEIKDKEEVQRKRQKLMPNFSDSFGGGSGAGAGGGGMFGSGGGGGGTGSTGPGYSFPHYGFPTYGGITFHPGTTKSNAGMKHG
notes: Endogenous protein; also called NF-κB p50
